These results are taken from publication PMC8085152 (Journal of molecular biology, 2021).

In assay [1] the target is α-synuclein (αS) monomers, full-length 1-140 (UniProt P37840). As to the kind of experiment: co-sedimentation.
The target in assay [2] is TDP-43 PrLD sonicated fibrils (UniProt Q13148 267-414). The assay is described as follows: ThT fluorescence seeding kinetics.

“TDP-43 PrLD (residues 267-414) monomers, hexahistidine-TEV fusion construct (from UniProt Q13148 267-414) (domain or fragment)”: the stoichiometry N (TDP-43 PrLD per αS) in assay [1] is 1.2.

B1: TDP-43 PrLD (residues 267-414) monomers, hexahistidine-TEV fusion construct (domain or fragment, UniProt Q13148 267-414, looked up)
chain: NRQLERSGRFGGNPGGFGNQGGFGNSRGGGAGLGNNQGSNMGGGMNFGAFSINPAMMAAAQAALQSSWGMMGMLASQQNQSGPSGNNQNQGNMQREPNQAFGSGNNSYSGSNSGAAIGWGSASNAGSGSGFNGGFGSSMDSKSSGWGM
In the case of B1, the binding result in assay [2] was “binds”.
